According to article PMC6894070, “The Plasmodium falciparum Hsp70-x chaperone assists the heat stress response of the malaria parasite” (The FASEB Journal, 2019):

Target: Plasmodium falciparum Hsp70-x (PfHsp70-x), full-length construct aa 25-679 (P. falciparum) (UniProt K7NTP5)

With “J-domain of P. falciparum Hsp40 cochaperone PFE0055c (PFE0055cJ), aa 77-148 (domain or fragment)” the apparent dissociation constant from titrating the cochaperone in ATP hydrolysis assays (5 μM chaperone, single-site binding fit) was 3 µM.
